Results from patent US20250264471A1 (INDI MOLECULAR, published 2025).
Numbered stars: 1 amine (or outer) side, 2 acyl side, 3 side chain; on linkers, the order of the positions; unused ones are H or OH. Bridge positions count the residues as written; N and C are the ends. Square brackets hold non-standard residues; d marks the D form. Primed or numbered codes have the meaning given here. Ends that are not written are not given here. I, II: the chains in the order shown. * marks the point of attachment. Az8″ = 2-amino-10-azidodecanoic acid (azido amino acid), [N-]=[N+]=NCCCCCCCC[C@H](N[*:1])C(=O)[*:2]; Butanoyl(4-ethynyl) = C#CCCCC(=O)*; Biotin′ = not defined here; Pra = C#CC[C@H](N)C(=O)O; C8N3 = not defined here; 5HA = not defined here; Az8 = not defined here

How the values were obtained:
Akt1-S473E-T308P = molecular target: T1, Akt1-S473E-T308P (H. sapiens, UniProt P31749 118-480 (human entry), phosphorylated at residue T308 (phosphothreonine)); assay: kinase kinetics, Dixon plot of 1/v vs. [Triligand] with varying [ATP]; noncompetitive
T1 construct: Fully active kinase; T308P means phospho-T308, not a proline substitution; Same construct as Akt1-S473E; also called Akt-S473E-T308P; Akt-S473E/T308P
T1 chain: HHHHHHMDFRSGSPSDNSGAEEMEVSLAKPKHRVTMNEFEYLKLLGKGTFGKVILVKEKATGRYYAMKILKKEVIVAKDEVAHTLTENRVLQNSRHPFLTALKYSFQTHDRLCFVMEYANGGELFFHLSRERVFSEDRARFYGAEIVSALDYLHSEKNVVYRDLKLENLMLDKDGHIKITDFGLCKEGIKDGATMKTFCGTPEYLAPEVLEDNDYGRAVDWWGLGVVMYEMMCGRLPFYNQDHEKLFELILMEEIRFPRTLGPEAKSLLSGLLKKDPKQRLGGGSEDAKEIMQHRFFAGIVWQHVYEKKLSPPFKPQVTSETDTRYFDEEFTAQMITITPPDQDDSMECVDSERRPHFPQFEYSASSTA
Procedure: To determine the inhibition mode of the triligand with respect to the ATP, kinase reactions were set up with increasing concentrations of ATP. The reactions were set up in a similar manner to that described above. The concentration of Biotin-Crosstide was held constant at 25 μM and the concentration of enzyme was held at […]. The concentration of ATP ranged from 125 μM to 4 μM (125 μM, 63 μM, 32 μM, 16 μM, 8 μM, 4 μM) while the concentration of triligand varied from 0 to 10 μM (0, 1 μM, 5 μM, 10 μM). [γ-³²P]-ATP (7000 Ci/mmol, 10 μCi/μL) was added to the cold ATP stock to maintain an [ATP]ₜₒₜₐₗ/[γ-³²P]-ATP ratio of 1667. The reactions were incubated, quenched, and analyzed as described above.
KM and Vₘₐₓ values for Akt1-S473ET308P were obtained by nonlinear regression from the results of the inhibition experiments (GraphPad). The literature values for the Michaelis constants for ATP and substrate peptide were taken from Klein 2005. The triligand Kᵢ (noncompetitive inhibition) was obtained from the negative X-intercept of the Dixon plot of 1/v vs. [Triligand] with varying [ATP]. The Kᵢ is the mean value of the observed X-intercepts and the error range is the standard deviation. The triligand K_{i′}, (uncompetitive inhibition) was obtained from the intercept of the Dixon plot of 1/v vs. [Triligand] with varying [Peptide]. […]

Akt1-S473E [1] = molecular target: T2, Akt1-S473E (H. sapiens, UniProt P31749 118-480 (human entry)); assay: SPR (Biacore T100): biotinylated triligand on streptavidin chip, Akt1-S473E 9000 nM to 1 nM as analyte, 10 °C, from kinetic constants
T2 construct: Partially active Akt1 kinase domain expressed in Hi5 insect cells from pVLAKT.2; also called Akt-S473E; AktS473E
T2 chain: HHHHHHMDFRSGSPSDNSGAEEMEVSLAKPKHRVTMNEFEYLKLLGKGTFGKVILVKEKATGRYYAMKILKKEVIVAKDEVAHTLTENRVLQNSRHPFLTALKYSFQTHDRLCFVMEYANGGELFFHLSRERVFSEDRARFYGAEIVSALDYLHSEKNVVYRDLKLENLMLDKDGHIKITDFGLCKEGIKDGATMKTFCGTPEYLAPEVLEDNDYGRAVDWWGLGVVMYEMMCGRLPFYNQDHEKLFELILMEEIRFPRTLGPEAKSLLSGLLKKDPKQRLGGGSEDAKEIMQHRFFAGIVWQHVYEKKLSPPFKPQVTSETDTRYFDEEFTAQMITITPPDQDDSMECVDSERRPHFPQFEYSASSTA
Procedure: For this experiment, the biotinylated triligand was immobilized on a streptavidin-derivatized biacore chip and probed with Akt-S473E at concentrations ranging from 9 μM to 1 nM.
Triligand binding affinity was further analyzed by SPR using a Biacore T100. A Streptavidin Chip (Series S, G.E. Healthcare) was conditioned as recommended by the manufacturer. Biotinylated ligand was diluted into HBSP+ Buffer (G.E. Healthcare) to a final concentration of 100 nM and 137 RU was immobilized on the chip. Akt1-S473E was prepared as described previously and subjected to buffer exchange into HBSP+using Zeba Desalting Columns (Pierce). Serial dilutions of the enzyme were made in HBSP+ buffer (9000 nM to 1 nM) and flowed over the chip at 50 μL/minute. Binding and dissociation were carried out at 10° C. with a contact time of 360 seconds, a dissociation time of 400 seconds, and a stabilization time of 200 seconds. The response was corrected using an unmodified reference flow cell. Kinetic constants were obtained from the sensograms and used to calculate the dissociation constant.

Akt1-S473E [2] = molecular target: T2, Akt1-S473E; assay: ELISA
Akt1-S473E [3] = molecular target: T2, Akt1-S473E; assay: ELISA: Akt-S473E on Ni-NTA plate, biotinylated peptide titrated, SA-HRP
Procedure: 3 μg of Akt-S473E was added to each well in a HisSorb Ni-NTA plate (Qiagen) in 50 μL of ELISA blocking buffer (25 mM Tris-CI (pH=7.5), 150 mM NaCl, 10 mM MgCl₂, 0.1% (v/v) Tween-20, and 4 mg/mL BSA). 50 μL of imidazole blocking buffer (25 mM Tris-CI (pH=7.5), 150 mM NaCl, 10 mM MgCl₂, 0.1% (v/v) Tween-20, 100 mM imidazole, and 4 mg/mL BSA) was added to the control wells. After 18 hours at 4° C., the wells were washed with ELISA blocking buffer and 50 μL of each ligand dilution was added in ELISA blocking buffer. The ligands were bound at 4° C. for 120 minutes followed by three washed in ELISA blocking buffer. 50 μL of horseradish peroxidase-conjugated streptavidin (SA-HRP, Thermo) was added (1:5000 dilution in ELISA blocking buffer) and incubated for 70 minutes at 4° C. The wells were washed three times in TBST (Tris-buffered saline+0.2% Tween-20) and once in TBS (Tris-buffered saline). 50 μL of peroxidase substrate (KPL) was added to generate the final signal which was quenched in 1 M H₂SO₄ and quantitated on a 96-well plate reader at λ=450 nm. The Net A450 was calculated by subtracting the A450 of each blank well (No Akt-S473E) from the experimental well. The data were fit by non-linear regression in GraphPad Prism.

B1: Akt triligand (biotinylated) (designed binder)
peptide 1: {5HA-C8N3}-VFYRLGY-{Biotin′}
peptide 2: Ac-[Pra]FWFLRG-NH2
peptide 3: {Ac-C8N3}-RHERI-NH2
modifications: triazole II:N-II:1; reading uncertain; also: triazole to a chain's N-terminus
notes: Assembled from 5HA-Biligand-Bio and Ac-C8N3-RHERI-CONH2; also called branched triligand
With B1 as the binder, how does the Ki (Akt1-S473E-T308P) read?
Its Ki is 4 µM.

And the Kd (Akt1-S473E [1])?
Its Kd is 200 nM.

B2: biotinylated anchor ligand Az8-VFYRLGY-Biotin (peptide)
peptide: [Az8″]VFYRLGY-biotin
notes: also called anchor peptide; biotinylated anchor peptide
Which Kd (Akt1-S473E [2]) does the source give for B2 here?
Its Kd is 25 µM.

B3: 5HA-Biligand-Bio (Akt biligand) (designed binder)
peptide 1: {Butanoyl(4-ethynyl)-Az8}-VFYRLGY-biotin
peptide 2: Ac-[Pra]FWFLRG-NH2
modifications: triazole II:N-II:1; reading uncertain; also: mixture of diastereomers
notes: Branched peptide, mixture of diastereomers; also called biotinylated biligand
Which “fold improvement in affinity relative to the anchor peptide” value (Akt1-S473E [3]) does the source give for B3 here?
Its value is over 100 fold.
